By Kd is commonly meant the constant that tells how readily two partners part at equilibrium. The low end stands for higher affinity, the high end for lower affinity.

Here are results for 1 substance from publication PMC7647453.

Holding throughout (test): MST
For assay [1], the target named is NanoTemper RED-labeled FVIIa (FVIIa-R) (human) (UniProt P08709).
Assay [2] shares this target. The source holds these as a separate data set.
For assay [3] the target is unchanged. This is another data set of the same source.
The target is the same in assay [4]. This is another data set of the same source.
Assay [5] has the same target. This is another data set of the same source.
Assay [6] has the same target. This is another data set of the same source.
Assay [7] shares this target. This is another data set of the same source.
The target is the same in assay [8]. This is another data set of the same source.
For assay [9] the target is unchanged. The source holds these as a separate data set.
Assay [10] has the same target. The source holds these as a separate data set.
Assay [11] shares this target. The source holds these as a separate data set.
Assay [12] has the same target. This is another data set of the same source.
The target is the same in assay [13]. The source holds these as a separate data set.

Read-outs that look alike come from different tables or passages of the source.

Sequence of UniProt P08709 (P08709 61-212, chain 1 of 2): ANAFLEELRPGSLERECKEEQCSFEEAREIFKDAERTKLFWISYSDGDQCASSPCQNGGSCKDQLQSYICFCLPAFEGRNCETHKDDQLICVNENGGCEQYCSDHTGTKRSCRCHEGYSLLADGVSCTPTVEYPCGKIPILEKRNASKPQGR
Sequence of UniProt P08709 (P08709 213-466, chain 2 of 2): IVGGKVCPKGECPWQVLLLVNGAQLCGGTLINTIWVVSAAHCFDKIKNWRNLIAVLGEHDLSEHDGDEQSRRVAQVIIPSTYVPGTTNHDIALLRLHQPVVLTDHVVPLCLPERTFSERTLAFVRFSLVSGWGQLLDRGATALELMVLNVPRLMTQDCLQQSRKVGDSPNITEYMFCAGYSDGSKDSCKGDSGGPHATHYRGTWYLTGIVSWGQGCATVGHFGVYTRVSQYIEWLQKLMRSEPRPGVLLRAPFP

As to “gCΔ457t (soluble recombinant HSV1 glycoprotein C) (from UniProt P10228 25-511) (domain or fragment)”, the Kd in [1] was 2200 nM; in [2], 2700 nM; in assay [3] it was 400 nM; in assay [4], above 12000 nM; in assay [5], 1600 nM; in [6], 800 nM. Besides, the Kd in assay [7] is 2900 nM; in assay [8], 2000 nM; in assay [9], 900 nM; in assay [10], 600 nM; in assay [11] it was 1300 nM; in assay [12], above 13000 nM. For the same substance, in assay [13], the Kd turned out to be 1000 nM.
